4 molecules from article PMC5734687 (PLoS ONE, 2017) can be followed below.

In test [1] the target is HER2 fragment V529-P625, C-terminal GSH6 tag (UniProt P04626). Nature of the test: SPR; Biacore T200; biotinylated HER2 fragment V529-P625 immobilised on streptavidin chip (SA); scFv 0.2-5 μM in 50 mM sodium phosphate pH 7.4; triplicate. In general terms: SPR reads the build-up and loss of mass on a sensor chip optically.
Test [2] deals with T1, full length human ITGA4 (antigen CD49, α4 subunit of VLA-4 receptor) (Homo sapiens, UniProt P13612).
T1 construct: integrin alpha-4 (ITGA4, CD49, α4 subunit of VLA-4), human, full length; also called ITG4A; ITGA4 full length
The test can be described thus: far-Western, overlay or dot blot; dot blot: 80 ng full length ITGA4 spotted on Immobilon-P; 6 μg/mL scFv in TBS, 1 h, room temperature; detected with HRP-labelled anti-His tag antibody. To be noted: both partners purified.

Test [3] has as its target T2, synthetic peptide DATAEEEEDFGEEA corresponding to residues 427-440 of human β-tubulin (Homo sapiens).
T2 construct: also called β-tubulin peptide; source: synthetic peptide (Fmoc chemistry, ABI433A)
T2 chain: DATAEEEEDFGEEA-biotin
Nature of the test: SPR; Biacore T200; C-terminally biotinylated β-tubulin peptide immobilised on streptavidin chip (SA); scFv 0.375-12 μM in 50 mM sodium phosphate pH 7.4. To be noted: both partners purified.

No end group written: not given here.

Turning to “natalizumab framework-trastuzumab CDRs hybrid scFv, expressed with CyDisCo”, in test [1], the Kd (usually the constant that tells how readily two partners part at equilibrium) was 147 nM.

B1: natalizumab scFv (IgG4 humanized), expressed without CyDisCo (scFv, V domains shown)
VH: QVQLVQSGAEVKKPGASVKVSCKASGFNIKDTYIHWVRQAPGQRLEWMGRIDPANGYTKYDPKFQGRVTITADTSASTAYMELSSLRSEDEAVYYCAREGYYGNYGVYAMDYWGQGTLVTVSS
VL: DIQMTQSPSSLSASVGDRVTITCKTSQDINKYMAWYQQTPGKAPRLLIHYTSALQPGIPSRFSGSGSGRDYTFTISSLQPEDIATYYCLQYDNLWTFGQGTKVEIK
notes: VL of natalizumab, as the VL of m5; linker, printed as (Gly4Ser)3; VH of natalizumab, as the VH of m5; expected mass 27755 Da); also called natalizumab - CyDisCo; Tysabri scFv; source: E. coli BW25113 cytoplasm, without CyDisCo (control vector pAG82), purified (IMAC, desalted); not shown: GSH6, C-terminal, kept
On to B1, for which the binding result in test [2] is on record as “binds”.

B2: natalizumab scFv (IgG4 humanized), expressed with CyDisCo (scFv, V domains shown)
VH: QVQLVQSGAEVKKPGASVKVSCKASGFNIKDTYIHWVRQAPGQRLEWMGRIDPANGYTKYDPKFQGRVTITADTSASTAYMELSSLRSEDEAVYYCAREGYYGNYGVYAMDYWGQGTLVTVSS
VL: DIQMTQSPSSLSASVGDRVTITCKTSQDINKYMAWYQQTPGKAPRLLIHYTSALQPGIPSRFSGSGSGRDYTFTISSLQPEDIATYYCLQYDNLWTFGQGTKVEIK
notes: VL of natalizumab; linker, printed as (Gly4Ser)3; VH of natalizumab; expected mass 27751 Da); also called natalizumab-natalizumab; Tysabri scFv; source: E. coli BW25113 cytoplasm, co-expressed with CyDisCo (Erv1p and PDI), purified (IMAC, desalted); not shown: GSH6, C-terminal, kept
For B2, in test [2], the binding result is reported as “binds”.

B3: IgA1 scFv (human), expressed with CyDisCo (scFv, V domains shown)
VH: EVQLVESGGGLVQPGGSLKLSCAASGFTLSGSNVHWVRQASGKGLEWVGRIKRNAESDATAYAASMRGRLTISRDDSKNTAFLQMNSLKSDDTAMYYCVIRGDVYNRQWGQGTLVTVSS
VL: DIVMTQSPLSLSVTPGEPASISCRSSQSLLRRDGHNDLEWYLQKPGQSPQPLIYLGSTRASGVPDRFSGSGSGTDFTLKIIRVEAEDAGTYYCMQNKQTPLTFGQGTRLEIK
notes: VL of the anti-beta-tubulin IgA1; linker, printed as (Gly4Ser)3; VH of the anti-beta-tubulin IgA1; Expected mass 27342 Da with disulfide bonds; also called IgA1-IgA1; parental scFv IgA1; source: E. coli BW25113 cytoplasm, co-expressed with CyDisCo (Erv1p and PDI), purified (IMAC, desalted)
Regarding B3, the affinity in test [3], expressed as Kd, was 3560 nM.
